Experimental data as given in paper doi:10.1101/2024.12.31.629942 (bioRxiv, 2024).

Tests used:
[1] = target: the molecule itself; assay: sedimentation of polymers
FtsZ^D212N (untagged) = target: T1, FtsZ^D212N (untagged) (E. coli, UniProt P0A9A6 1-383, D212N); assay: pull-down
T1 sequence: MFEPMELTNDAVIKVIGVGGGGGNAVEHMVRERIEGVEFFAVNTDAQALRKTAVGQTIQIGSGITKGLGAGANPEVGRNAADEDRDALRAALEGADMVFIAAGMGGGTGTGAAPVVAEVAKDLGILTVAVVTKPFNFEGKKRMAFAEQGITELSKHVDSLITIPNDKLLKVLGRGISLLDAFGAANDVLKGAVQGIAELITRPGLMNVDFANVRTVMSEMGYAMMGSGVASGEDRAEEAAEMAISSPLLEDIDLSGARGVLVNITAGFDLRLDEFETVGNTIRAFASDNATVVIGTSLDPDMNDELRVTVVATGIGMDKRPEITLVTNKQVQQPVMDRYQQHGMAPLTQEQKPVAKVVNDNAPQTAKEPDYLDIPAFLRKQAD

[2] = target: T2, FtsZ (wild-type, untagged) (E. coli, UniProt P0A9A6 1-383); assay: co-sedimentation
T2 sequence: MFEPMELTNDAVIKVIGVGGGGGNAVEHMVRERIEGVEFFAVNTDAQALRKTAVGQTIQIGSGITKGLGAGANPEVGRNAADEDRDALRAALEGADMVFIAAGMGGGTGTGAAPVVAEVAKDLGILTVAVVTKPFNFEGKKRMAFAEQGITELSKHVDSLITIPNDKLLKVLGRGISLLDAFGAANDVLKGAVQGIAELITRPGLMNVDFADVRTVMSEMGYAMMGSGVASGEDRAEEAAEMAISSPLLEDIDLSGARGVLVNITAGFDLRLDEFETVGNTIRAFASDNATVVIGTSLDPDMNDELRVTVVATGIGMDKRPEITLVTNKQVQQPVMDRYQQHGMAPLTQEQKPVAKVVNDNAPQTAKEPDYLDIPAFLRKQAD

B1: FtsZ^F2A (untagged) (natural protein)
chain: MAEPMELTNDAVIKVIGVGGGGGNAVEHMVRERIEGVEFFAVNTDAQALRKTAVGQTIQIGSGITKGLGAGANPEVGRNAADEDRDALRAALEGADMVFIAAGMGGGTGTGAAPVVAEVAKDLGILTVAVVTKPFNFEGKKRMAFAEQGITELSKHVDSLITIPNDKLLKVLGRGISLLDAFGAANDVLKGAVQGIAELITRPGLMNVDFADVRTVMSEMGYAMMGSGVASGEDRAEEAAEMAISSPLLEDIDLSGARGVLVNITAGFDLRLDEFETVGNTIRAFASDNATVVIGTSLDPDMNDELRVTVVATGIGMDKRPEITLVTNKQVQQPVMDRYQQHGMAPLTQEQKPVAKVVNDNAPQTAKEPDYLDIPAFLRKQAD
B1: binds [1].

B2: H-SUMO-ZapA (natural protein)
chain: MSAQPVDIQIFGRSLRVNCPPDQRDALNQAADDLNQRLQDLKERTRVTNTEQLVFIAALNISYELAQEKAKTRDYAASMEQRIRMLQQTIEQALLEQGRITEKTNQNFE
B2: binds (FtsZ^D212N (untagged)).

B3: ZapA (untagged) (natural protein)
chain: MSAQPVDIQIFGRSLRVNCPPDQRDALNQAADDLNQRLQDLKERTRVTNTEQLVFIAALNISYELAQEKAKTRDYAASMEQRIRMLQQTIEQALLEQGRITEKTNQNFE
B3: binds [2].
